Source: publication PMC10247859, “Replisome-cohesin interactions provided by the Tof1-Csm3 and Mrc1 cohesion establishment factors” (Chromosoma, 2023)
Values belong to the binder of their own block, whether it stands above or below them.

Tests used:
Conditions in all cases: both partners purified
Tof1 = target: T1, Tof1 (S. cerevisiae (budding yeast), UniProt P53840 1-1238); assay: cross-linking; CLMS with sulfo-SDA; cohesin, Tof1-Csm3 and Chl1 with or without Mrc1 at 300-350 nM, 30 °C 5 min, cross-linker 2 h at 4 °C, UV 365 nm; LC-MS/MS, 1% FDR at residue-pair level; two samples merged
T1 construct: Tof1, budding yeast; the Tof1 chain of m2; Stood in the cross-linking sample as a chain of the Tof1-Csm3 complex; source: purified as part of Tof1-Csm3, as previously described (Yeeles et al. 2017)
T1 sequence (looked up): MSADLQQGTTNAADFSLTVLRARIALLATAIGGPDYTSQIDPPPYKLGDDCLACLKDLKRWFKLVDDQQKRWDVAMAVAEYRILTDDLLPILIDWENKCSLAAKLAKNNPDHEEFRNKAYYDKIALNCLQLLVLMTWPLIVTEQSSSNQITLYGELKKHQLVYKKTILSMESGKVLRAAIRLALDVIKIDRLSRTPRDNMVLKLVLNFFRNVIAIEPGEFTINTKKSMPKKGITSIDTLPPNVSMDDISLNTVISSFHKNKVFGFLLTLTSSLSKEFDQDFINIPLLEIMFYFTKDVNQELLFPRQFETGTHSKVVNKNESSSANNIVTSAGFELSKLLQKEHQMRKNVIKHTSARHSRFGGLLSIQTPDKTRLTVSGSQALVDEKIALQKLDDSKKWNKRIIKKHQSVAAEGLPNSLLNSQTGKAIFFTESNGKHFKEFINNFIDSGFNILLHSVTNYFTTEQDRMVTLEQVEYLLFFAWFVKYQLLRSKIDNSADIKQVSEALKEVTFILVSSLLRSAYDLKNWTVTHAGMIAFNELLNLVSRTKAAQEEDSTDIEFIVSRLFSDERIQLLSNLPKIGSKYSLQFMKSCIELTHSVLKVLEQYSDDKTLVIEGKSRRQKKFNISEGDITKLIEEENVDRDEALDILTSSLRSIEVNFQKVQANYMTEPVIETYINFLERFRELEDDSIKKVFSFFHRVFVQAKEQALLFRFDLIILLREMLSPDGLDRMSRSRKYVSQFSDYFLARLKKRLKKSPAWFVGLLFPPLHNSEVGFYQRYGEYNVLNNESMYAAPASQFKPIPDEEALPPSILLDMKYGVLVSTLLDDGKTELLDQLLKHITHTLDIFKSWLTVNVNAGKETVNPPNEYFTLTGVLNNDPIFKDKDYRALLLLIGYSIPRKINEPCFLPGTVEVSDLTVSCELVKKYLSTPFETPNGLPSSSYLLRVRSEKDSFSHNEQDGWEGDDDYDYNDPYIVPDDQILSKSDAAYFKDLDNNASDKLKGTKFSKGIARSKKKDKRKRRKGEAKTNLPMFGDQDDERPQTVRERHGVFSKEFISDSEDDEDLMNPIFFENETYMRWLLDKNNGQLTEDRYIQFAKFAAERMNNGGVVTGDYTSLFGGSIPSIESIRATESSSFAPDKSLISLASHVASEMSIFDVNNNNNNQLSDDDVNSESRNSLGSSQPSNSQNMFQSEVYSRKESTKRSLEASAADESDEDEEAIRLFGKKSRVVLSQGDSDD

Tof1-Csm3 complex = target: T2, Tof1-Csm3 complex (S. cerevisiae (budding yeast), UniProt P53840 1-1238; Q04659 1-317); assay: pull-down; Flag-tagged Chl1 (200-600 nM) held on anti-Flag M2 magnetic beads; Tof1-Csm3 as prey; interaction buffer
T2 construct: Tof1, budding yeast; Csm3, budding yeast; Held on calmodulin dynabeads when used as bait; source: purified as previously described (Yeeles et al. 2017)

[1] = target: T3, cohesin tetramer complex (Smc1-Smc3-Scc1-Scc3) (S. cerevisiae (budding yeast), UniProt P32908 1-1225; P47037 1-1230; Q12158 1-566; P40541 1-1150); assay: pull-down; cohesin tetramer (200-600 nM) held on Protein A dynabeads by anti-Pk antibody (Pk tag on Smc1); 200 nM prey, 30 °C, 5 min; 25 mM HEPES-KOH pH 7.6, 100 mM potassium glutamate, 10 mM magnesium acetate, 0.12% NP-40; SDS elution, Coomassie staining
T3 construct: Smc1, cohesin subunit, budding yeast; Smc3, cohesin subunit, budding yeast; Scc1, cohesin subunit, budding yeast; Scc3, cohesin subunit, budding yeast; also called cohesin complex; source: purified as previously described (Minamino et al. 2018): IgG agarose, 3C protease cleavage; copies: + + +
T3 sequence (Q12158 whole entry, chain 3 of 2): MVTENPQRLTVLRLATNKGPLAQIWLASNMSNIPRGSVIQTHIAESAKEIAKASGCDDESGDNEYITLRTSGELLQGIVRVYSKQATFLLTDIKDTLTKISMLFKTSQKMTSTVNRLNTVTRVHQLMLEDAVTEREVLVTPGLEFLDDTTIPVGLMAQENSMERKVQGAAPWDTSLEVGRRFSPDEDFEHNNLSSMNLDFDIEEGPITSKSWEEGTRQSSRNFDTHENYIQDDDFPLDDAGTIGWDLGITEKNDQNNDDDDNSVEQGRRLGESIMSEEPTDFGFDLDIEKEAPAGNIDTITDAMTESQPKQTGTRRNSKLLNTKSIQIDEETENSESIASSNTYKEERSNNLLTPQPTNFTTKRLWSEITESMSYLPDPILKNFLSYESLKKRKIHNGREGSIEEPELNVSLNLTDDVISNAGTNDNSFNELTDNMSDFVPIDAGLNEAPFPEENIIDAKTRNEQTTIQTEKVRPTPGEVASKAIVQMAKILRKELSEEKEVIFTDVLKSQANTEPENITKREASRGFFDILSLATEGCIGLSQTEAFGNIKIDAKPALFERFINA
T3 sequence (P40541 whole entry, chain 4 of 2): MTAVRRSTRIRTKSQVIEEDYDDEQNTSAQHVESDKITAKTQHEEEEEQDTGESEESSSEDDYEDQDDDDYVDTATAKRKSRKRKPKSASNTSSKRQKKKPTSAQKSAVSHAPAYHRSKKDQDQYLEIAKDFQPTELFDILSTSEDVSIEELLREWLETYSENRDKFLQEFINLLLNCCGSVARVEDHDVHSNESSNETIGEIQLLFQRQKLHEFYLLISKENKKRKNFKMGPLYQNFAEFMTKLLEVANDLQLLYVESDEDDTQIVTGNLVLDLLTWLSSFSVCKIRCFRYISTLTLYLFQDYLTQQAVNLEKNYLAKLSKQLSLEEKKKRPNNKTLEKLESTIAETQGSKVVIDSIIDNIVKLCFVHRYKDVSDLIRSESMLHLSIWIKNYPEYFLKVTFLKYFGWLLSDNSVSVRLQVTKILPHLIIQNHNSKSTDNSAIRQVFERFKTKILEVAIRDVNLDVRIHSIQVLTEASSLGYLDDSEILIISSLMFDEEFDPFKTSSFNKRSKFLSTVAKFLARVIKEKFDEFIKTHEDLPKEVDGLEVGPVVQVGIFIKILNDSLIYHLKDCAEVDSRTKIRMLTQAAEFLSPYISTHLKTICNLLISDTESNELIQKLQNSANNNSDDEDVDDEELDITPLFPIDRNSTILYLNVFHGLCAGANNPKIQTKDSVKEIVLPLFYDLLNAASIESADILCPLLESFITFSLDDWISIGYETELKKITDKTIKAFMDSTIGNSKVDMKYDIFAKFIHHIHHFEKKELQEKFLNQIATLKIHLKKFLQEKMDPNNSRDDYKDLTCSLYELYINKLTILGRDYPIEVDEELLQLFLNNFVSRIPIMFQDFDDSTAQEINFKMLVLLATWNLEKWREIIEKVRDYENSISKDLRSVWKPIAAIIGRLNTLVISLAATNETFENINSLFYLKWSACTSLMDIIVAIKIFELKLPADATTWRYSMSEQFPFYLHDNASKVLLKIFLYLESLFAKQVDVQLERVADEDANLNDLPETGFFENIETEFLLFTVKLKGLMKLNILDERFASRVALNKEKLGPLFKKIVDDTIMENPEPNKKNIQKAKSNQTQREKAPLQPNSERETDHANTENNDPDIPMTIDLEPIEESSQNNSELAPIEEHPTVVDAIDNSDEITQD

B2: Smc3 (natural protein, S. cerevisiae (budding yeast), UniProt P47037 1-1230, looked up)
chain: MYIKRVIIKGFKTYRNETIIDNFSPHQNVIIGSNGSGKSNFFAAIRFVLSDDYSNLKREERQGLIHQGSGGSVMSASVEIVFHDPDHSMILPSGVLSRGDDEVTIRRTVGLKKDDYQLNDRNVTKGDIVRMLETAGFSMNNPYNIVPQGKIVALTNAKDKERLQLLEDVVGAKSFEVKLKASLKKMEETEQKKIQINKEMGELNSKLSEMEQERKELEKYNELERNRKIYQFTLYDRELNEVINQMERLDGDYNNTVYSSEQYIQELDKREDMIDQVSKKLSSIEASLKIKNATDLQQAKLRESEISQKLTNVNVKIKDVQQQIESNEEQRNLDSATLKEIKSIIEQRKQKLSKILPRYQELTKEEAMYKLQLASLQQKQRDLILKKGEYARFKSKDERDTWIHSEIEELKSSIQNLNELESQLQMDRTSLRKQYSAIDEEIEELIDSINGPDTKGQLEDFDSELIHLKQKLSESLDTRKELWRKEQKLQTVLETLLSDVNQNQRNVNETMSRSLANGIINVKEITEKLKISPESVFGTLGELIKVNDKYKTCAEVIGGNSLFHIVVDTEETATLIMNELYRMKGGRVTFIPLNRLSLDSDVKFPSNTTTQIQFTPLIKKIKYEPRFEKAVKHVFGKTIVVKDLGQGLKLAKKHKLNAITLDGDRADKRGVLTGGYLDQHKRTRLESLKNLNESRSQHKKILEELDFVRNELNDIDTKIDQVNGNIRKVSNDRESVLTNIEVYRTSLNTKKNEKLILEESLNAIILKLEKLNTNRTFAQEKLNTFENDLLQEFDSELSKEEKERLESLTKEISAAHNKLNITSDALEGITTTIDSLNAELESKLIPQENDLESKMSEVGDAFIFGLQDELKELQLEKESVEKQHENAVLELGTVQREIESLIAEETNNKKLLEKANNQQRLLLKKLDNFQKSVEKTMIKKTTLVTRREELQQRIREIGLLPEDALVNDFSDITSDQLLQRLNDMNTEISGLKNVNKRAFENFKKFNERRKDLAERASELDESKDSIQDLIVKLKQQKVNAVDSTFQKVSENFEAVFERLVPRGTAKLIIHRKNDNANDHDESIDVDMDAESNESQNGKDSEIMYTGVSISVSFNSKQNEQLHVEQLSGGQKTVCAIALILAIQMVDPASFYLFDEIDAALDKQYRTAVATLLKELSKNAQFICTTFRTDMLQVADKFFRVKYENKISTVIEVNREEAIGFIRGSNKFAEV
notes: Smc3, budding yeast; the Smc3 chain of m1; Stood in the cross-linking sample as a chain of cohesin; source: purified as part of cohesin, as previously described (Minamino et al. 2018)
binding result (Tof1): binds

B3: Smc1 (natural protein, S. cerevisiae (budding yeast), UniProt P32908 1-1225, looked up)
chain: MGRLVGLELSNFKSYRGVTKVGFGESNFTSIIGPNGSGKSNMMDAISFVLGVRSNHLRSNILKDLIYRGVLNDENSDDYDNEGAASSNPQSAYVKAFYQKGNKLVELMRIISRNGDTSYKIDGKTVSYKDYSIFLENENILIKAKNFLVFQGDVEQIAAQSPVELSRMFEEVSGSIQYKKEYEELKEKIEKLSKSATESIKNRRRIHGELKTYKEGINKNEEYRKQLDKKNELQKFQALWQLYHLEQQKEELTDKLSALNSEISSLKGKINNEMKSLQRSKSSFVKESAVISKQKSKLDYIFKDKEKLVSDLRLIKVPQQAAGKRISHIEKRIESLQKDLQRQKTYVERFETQLKVVTRSKEAFEEEIKQSARNYDKFKLNENDLKTYNCLHEKYLTEGGSILEEKIAVLNNDKREIQEELERFNKRADISKRRITEELSITGEKLDTQLNDLRVSLNEKNALHTERLHELKKLQSDIESANNQEYDLNFKLRETLVKIDDLSANQRETMKERKLRENIAMLKRFFPGVKGLVHDLCHPKKEKYGLAVSTILGKNFDSVIVENLTVAQECIAFLKKQRAGTASFIPLDTIETELPTLSLPDSQDYILSINAIDYEPEYEKAMQYVCGDSIICNTLNIAKDLKWKKGIRGKLVTIEGALIHKAGLMTGGISGDANNRWDKEEYQSLMSLKDKLLIQIDELSNGQRSNSIRAREVENSVSLLNSDIANLRTQVTQQKRSLDENRLEIKYHNDLIEKEIQPKITELKKKLDDLENTKDNLVKEKEALQNNIFKEFTSKIGFTIKEYENHSGELMRQQSKELQQLQKQILTVENKLQFETDRLSTTQRRYEKAQKDLENAQVEMKSLEEQEYAIEMKIGSIESKLEEHKNHLDELQKKFVTKQSELNSSEDILEDMNSNLQVLKRERDGIKEDIEKFDLERVTALKNCKISNINIPISSETTIDDLPISSTDNEAITISNSIDINYKGLPKKYKENNTDSARKELEQKIHEVEEILNELQPNARALERYDEAEGRFEVINNETEQLKAEEKKILNQFLKIKKKRKELFEKTFDYVSDHLDAIYRELTKNPNSNVELAGGNASLTIEDEDEPFNAGIKYHATPPLKRFKDMEYLSGGEKTVAALALLFAINSYQPSPFFVLDEVDAALDITNVQRIAAYIRRHRNPDLQFIVISLKNTMFEKSDALVGVYRQQQENSSKIITLDLSNYAE
notes: Smc1, budding yeast; the Smc1 chain of m1; Stood in the cross-linking sample as a chain of cohesin; source: purified as part of cohesin, as previously described (Minamino et al. 2018)
binding result (Tof1): binds

Further lines, results first:

binding result (Tof1): binds
B1: Csm3 (natural protein, S. cerevisiae (budding yeast), UniProt Q04659 1-317, looked up)
chain: MDQDFDSLLLGFNDSDSVQKDPTVPNGLDGSVVDPTIADPTAITARKRRPQVKLTAEKLLSDKGLPYVLKNAHKRIRISSKKNSYDNLSNIIQFYQLWAHELFPKAKFKDFMKICQTVGKTDPVLREYRVSLFRDEMGMSFDVGTRETGQDLERQSPMVEEHVTSAEERPIVADSFAQDKRNVNNVDYDNDEDDDIYHLSYRNRRGRVLDERGNNETVLNNVVPPKEDLDALLKTFRVQGPVGLEENEKKLLLGWLDAHRKMEKGSMTEEDVQLIQSLEEWEMNDIEGQHTHYDLLPGGDEFGVDQDELDAMKEMGF
notes: Csm3, budding yeast; the Csm3 chain of m2; Stood in the cross-linking sample as a chain of the Tof1-Csm3 complex; source: purified as part of Tof1-Csm3, as previously described (Yeeles et al. 2017)

binding result (Tof1-Csm3 complex): binds
binding result [1]: binds
B4: Chl1 (natural protein, S. cerevisiae (budding yeast), UniProt P22516 1-861, looked up)
chain: MDKKEYSETFYHPYKPYDIQVQLMETVYRVLSEGKKIAILESPTGTGKTLSLICATMTWLRMNKADIFTRMETNIKTNEDDSENLSDDEPDWVIDTYRKSVLQEKVDLLNDYEKHLNEINTTSCKQLKTMCDLDKEHGRYKSVDPLRKKRKGARHLDVSLEEQDFIPRPYESDSENNDTSKSTRGGRISDKDYKLSELNSQIITLLDKIDGKVSRDPNNGDRFDVTNQNPVKIYYASRTYSQLGQFTSQLRLPSFPSSFRDKVPDEKVKYLPLASKKQLCINPKVMKWKTLEAINDACADLRHSKEGCIFYQNTNEWRHCPDTLALRDMIFSEIQDIEDLVPLGKSLGICPYYASREALPIAEVVTLPYQYLLSESTRSSLQINLENSIVIIDEAHNLIETINSIYSSQISLEDLKNCHKGIVTYFNKFKSRLNPGNRVNLLKLNSLLMTLIQFIVKNFKKIGQEIDPNDMFTGSNIDTLNIHKLLRYIKVSKIAYKIDTYNQALKEEESSKNENPIKETHKKSVSSQPLLFKVSQFLYCLTNLTSEGQFFFEKNYSIKYMLLEPSKPFESILNQAKCVVLAGGTMEPMSEFLSNLLPEVPSEDITTLSCNHVIPKENLQTYITNQPELEFTFEKRMSPSLVNNHLFQFFVDLSKAVPKKGGIVAFFPSYQYLAHVIQCWKQNDRFATLNNVRKIFYEAKDGDDILSGYSDSVAEGRGSLLLAIVGGKLSEGINFQDDLCRAVVMVGLPFPNIFSGELIVKRKHLAAKIMKSGGTEEEASRATKEFMENICMKAVNQSVGRAIRHANDYANIYLLDVRYNRPNFRKKLSRWVQDSINSEHTTHQVISSTRKFFSMRSLNSR
notes: Chl1, budding yeast; codon-optimized ectopic copy; also called Flag-tagged Chl1; Chl1 helicase
